± gives the standard deviation.
Assay: collision cross section of modified peptide (TIMS, N2, iRT-aligned); higher = larger / more extended gas-phase ion
Method: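 1/K0 was aligned run-wise to spiked iRT peptides and converted to CCS in N2 (Mason-Schamp). Values are the mean of 1-3 technical replicates for the most abundant feature at each charge state.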

[1] = charge state: 2, modification: GlyGly (K)
[2] = charge state: 3, modification: GlyGly (K)
[3] = charge state: 2, modification: Methyl (K)
[4] = charge state: 3, modification: Methyl (K)
[5] = charge state: 2, modification: Dimethyl (K)
[6] = charge state: 3, modification: Dimethyl (K)
[7] = charge state: 2, modification: Formyl
[8] = charge state: 2, modification: Butyryl
[9] = charge state: 2, modification: Citrullination (R)
[10] = charge state: 3, modification: Citrullination (R)
[11] = charge state: 2, modification: hydroxyisobutyryl
[12] = charge state: 2, modification: Propionyl
[13] = charge state: 2, modification: Succinyl
[14] = charge state: 2, modification: Malonyl
[15] = charge state: 3, modification: Malonyl
[16] = charge state: 3, modification: Propionyl
[17] = charge state: 2, modification: Trimethyl (K)
[18] = charge state: 3, modification: Methyl (R)
[19] = charge state: 3, modification: Trimethyl (K)
[20] = charge state: 2, modification: Phospho (Y)
[21] = charge state: 2, modification: HexNAc (ST)
[22] = charge state: 2, modification: Glutarylation
[23] = charge state: 3, modification: Butyryl
[24] = charge state: 3, modification: Succinyl
[25] = charge state: 3, modification: Formyl
[26] = charge state: 3, modification: Acetyl (K)

In the case of “SNEEGSEEKGPEVR [_SNEEGSEEK(GlyGly (K))GPEVR_]”, the collision cross section [1] is reported as 409.13 ± 2.5 Å² and the collision cross section [2] is reported as 474.76 ± 1.1 Å².

Work on SEASSEFAKK [_SEASSEFAK(Methyl (K))K_] yielded a collision cross section [3] of 357.88 ± 2.5 Å² and a collision cross section [4] of 426.48 ± 2.6 Å².

Work on PGNSGIR [_P(Hydroxyproline)GNSGIR_] yielded a collision cross section (charge state: 2, modification: Hydroxyproline) of 280.46 ± 3.1 Å².

“DLSTVEALQNLKNLK [_DLSTVEALQNLK(Dimethyl (K))NLK_]” showed a collision cross section [5] of 476.15 ± 1.7 Å² and a collision cross section [6] of 513.29 ± 0.57 Å².

For LAEEENKAK [_LAEEENK(Formyl)AK_], the collision cross section [7] was 342.64 ± 1.5 Å².

With “ALASIDSKLNQAK [_ALASIDSK(Butyryl)LNQAK_]” the collision cross section [8] was 403.96 ± 0.85 Å².

With LAEEENKAK [_LAEEENK(Dimethyl (K))AK_] the collision cross section [5] was 348.03 ± 0.59 Å² and the collision cross section [6] was 411.22 ± 2.8 Å².

With “VTPHPSPRGSPLPTPK [_VTPHPSPR(Citrullination (R))GSPLPTPK_]” the collision cross section [9] was 409.96 ± 0.55 Å² and the collision cross section [10] was 504.78 ± 11 Å².

For “SNEEGSEEKGPEVR [_SNEEGSEEK(hydroxyisobutyryl)GPEVR_]”, the collision cross section [11] was 409.53 ± 1.1 Å².

For “TQAYQDQKPGTSGLR [_TQAYQDQK(Propionyl)PGTSGLR_]”, the collision cross section [12] was 428.95 ± 1.4 Å².

“IPQEKCILQTDVK [_IPQEK(Succinyl)CILQTDVK_]” gave a collision cross section [13] of 432.46 ± 0.51 Å².

Substance “FSAYIKNSNPALNDNLEK [_FSAYIK(GlyGly (K))NSNPALNDNLEK_]” has a collision cross section [1] of 506.19 ± 1.5 Å² and a collision cross section [2] of 530.18 ± 11 Å².

In the case of KYEEIDNAPEER [_K(Malonyl)YEEIDNAPEER_], the collision cross section [14] is reported as 410.49 ± 0.6 Å² and the collision cross section [15] is reported as 491.92 ± 5.7 Å².

“VNIGQGSHPQKVK [_VNIGQGSHPQK(Propionyl)VK_]” showed a collision cross section [16] of 485.17 ± 0.74 Å².

“GFCFITYTDEEPVKK [_GFCFITYTDEEPVK(Trimethyl (K))K_]” showed a collision cross section [17] of 480.23 Å².

For “GGFQNRGGGSGGGGNYR [_GGFQNR(Methyl (R))GGGSGGGGNYR_]”, the collision cross section [18] was 475.78 ± 6.5 Å².

“IHVQSSSDSSDEPAEKR [_IHVQSSSDSSDEPAEK(Trimethyl (K))R_]” gave a collision cross section [19] of 528.1 ± 1.6 Å².

With LRQQLQAK [_LR(Methyl (R))QQLQAK_] the collision cross section (charge state: 2, modification: Methyl (R)) was 356.39 ± 9.6 Å² and the collision cross section [18] was 413.25 ± 2 Å².

“AIEINPDSAQPYK [_AIEINPDSAQPY(Phospho (Y))K_]” gave a collision cross section [20] of 402.87 ± 0.061 Å².

Work on “EGFSIPVSADGFK [_EGFSIPVS(HexNAc (ST))ADGFK_]” yielded a collision cross section [21] of 412.81 ± 0.62 Å².

For “VFSIISSEKELK [_VFSIISSEK(Gluratylation)ELK_]”, the collision cross section [22] was 415.44 ± 1.1 Å².

ASPPLFQSR [_ASPPLFQS(HexNAc (ST))R_] showed a collision cross section [21] of 363.62 ± 0.64 Å².

With “LGVATVAKGVCGACK [_LGVATVAK(Malonyl)GVCGACK_]” the collision cross section [14] was 416.08 ± 0.71 Å² and the collision cross section [15] was 487.74 Å².

Substance DFDTALKHYDK [_DFDTALK(Butyryl)HYDK_] has a collision cross section [8] of 408.66 ± 0.23 Å² and a collision cross section [23] of 465.65 ± 2.9 Å².

With ASEALLKQLK [_ASEALLK(Formyl)QLK_] the collision cross section [7] was 369.4 ± 0.89 Å².

“LPTTAASTPDAVDK [_LPT(HexNAc (ST))TAASTPDAVDK_]” gave a collision cross section [21] of 413.95 ± 0.62 Å².

With “AGQKLIDVNHYAK [_AGQK(Methyl (K))LIDVNHYAK_]” the collision cross section [3] was 421.24 ± 1.5 Å² and the collision cross section [4] was 475.12 ± 2.7 Å².

SSDLTDRVK [_S(HexNAc (ST))SDLTDRVK_] gave a collision cross section [21] of 362.74 ± 0.12 Å² and a collision cross section (charge state: 3, modification: HexNAc (ST)) of 449.63 ± 1.1 Å².

In the case of KFGVLSDNFK [_K(Malonyl)FGVLSDNFK_], the collision cross section [14] is reported as 373.81 ± 0.63 Å².

In the case of LEQVEKELLR [_LEQVEK(Formyl)ELLR_], the collision cross section [7] is reported as 382.29 ± 0.41 Å².

“TGGTQTDLFTCGKCK [_TGGTQTDLFTCGK(GlyGly (K))CK_]” showed a collision cross section [1] of 442.06 Å² and a collision cross section [2] of 489.77 ± 1.1 Å².

Substance “GTITVSAQELKDNR [_GTITVSAQELK(Dimethyl (K))DNR_]” has a collision cross section [5] of 437.65 ± 1.3 Å² and a collision cross section [6] of 475.47 ± 2.4 Å².

For “DYSSGFGGKYGVQADR [_DYSSGFGGK(Gluratylation)YGVQADR_]”, the collision cross section [22] was 441.26 ± 0.95 Å².

Substance “PSVGSQSNQAGQGKR [_PSVGSQSNQAGQGK(Dimethyl (K))R_]” has a collision cross section [5] of 425.54 ± 3 Å² and a collision cross section [6] of 470.05 ± 1.2 Å².

For “ASNAAVKLAESK [_ASNAAVK(hydroxyisobutyryl)LAESK_]”, the collision cross section [11] was 376.83 ± 0.8 Å².

Substance FDDTNPEKEEAK [_FDDTNPEK(Malonyl)EEAK_] has a collision cross section [14] of 398.04 ± 0.6 Å².

Substance TTEETSKPK [_TTEETSK(Trimethyl (K))PK_] has a collision cross section [17] of 342 ± 0.055 Å².

“PANEKATDDYHYEK [_PANEK(Butyryl)ATDDYHYEK_]” showed a collision cross section [8] of 443.05 ± 0.53 Å² and a collision cross section [23] of 509.24 ± 1.8 Å².

“AGQKLIDVNHYAK [_AGQK(Succinyl)LIDVNHYAK_]” showed a collision cross section [13] of 435.59 ± 1.1 Å² and a collision cross section [24] of 483.35 ± 2.9 Å².

With “GTISAPGKVVTAAAQAK [_GTISAPGK(Biotin)VVTAAAQAK_]” the collision cross section (charge state: 2, modification: Biotin) was 458.66 ± 0.47 Å² and the collision cross section (charge state: 3, modification: Biotin) was 550.8 ± 0.34 Å².

Work on “FGTINIVHPKLGSYTK [_FGTINIVHPK(Succinyl)LGSYTK_]” yielded a collision cross section [13] of 474.47 ± 1.3 Å² and a collision cross section [24] of 560.66 ± 0.77 Å².

Substance “DYSSGFGGKYGVQADR [_DYSSGFGGK(Butyryl)YGVQADR_]” has a collision cross section [8] of 438.71 ± 1.6 Å².

For “VDVEVPDVSLEGPEGKLK [_VDVEVPDVSLEGPEGK(GlyGly (K))LK_]”, the collision cross section [1] was 462.5 ± 0.94 Å² and the collision cross section [2] was 497.08 ± 1.1 Å².

Work on DFDTALKHYDK [_DFDTALK(Methyl (K))HYDK_] yielded a collision cross section [3] of 393.99 Å² and a collision cross section [4] of 458.02 ± 4 Å².

“YSSNLGNFNYEQRGAFR [_YSSNLGNFNYEQR(Methyl (R))GAFR_]” showed a collision cross section [18] of 534.33 ± 1.9 Å².

Substance “GTITVSAQELKDNR [_GTITVSAQELK(hydroxyisobutyryl)DNR_]” has a collision cross section [11] of 423.58 ± 0.3 Å² and a collision cross section (charge state: 3, modification: hydroxyisobutyryl) of 485.27 ± 2.8 Å².

Substance “SLYASSPGGVYATR [_SLYAS(HexNAc (ST))SPGGVYATR_]” has a collision cross section [21] of 421.13 ± 0.62 Å².

With “GFALVGVGSEASSKK [_GFALVGVGSEASSK(Trimethyl (K))K_]” the collision cross section [17] was 444.52 ± 0.57 Å² and the collision cross section [19] was 489.21 ± 1.8 Å².

In the case of KFGVLSDNFK [_K(Dimethyl (K))FGVLSDNFK_], the collision cross section [5] is reported as 367.27 ± 1.5 Å².

VTLEVGKVIQQGR [_VTLEVGK(Formyl)VIQQGR_] showed a collision cross section [7] of 402.06 ± 2.7 Å² and a collision cross section [25] of 475.94 ± 2.1 Å².

Work on KYEEIDNAPEER [_K(Formyl)YEEIDNAPEER_] yielded a collision cross section [7] of 405.5 ± 0.74 Å².

Work on “SSGPGGQNVNKVNSK [_SSGPGGQNVNK(Dimethyl (K))VNSK_]” yielded a collision cross section [5] of 397.16 ± 1.7 Å² and a collision cross section [6] of 437.57 ± 2.1 Å².

With “ASDTSSETVFGKR [_ASDTSSETVFGK(Propionyl)R_]” the collision cross section [12] was 398.28 ± 0.65 Å² and the collision cross section [16] was 481.99 Å².

For ITLSKHQNVQLPR [_ITLSK(Formyl)HQNVQLPR_], the collision cross section [7] was 435.58 ± 0.72 Å² and the collision cross section [25] was 504.15 ± 24 Å².

Substance DFDTALKHYDK [_DFDTALK(Acetyl (K))HYDK_] has a collision cross section (charge state: 2, modification: Acetyl (K)) of 401.2 ± 2 Å² and a collision cross section [26] of 463.37 ± 2.2 Å².

For “ATVASSTQKFQDLGVK [_ATVASSTQK(Crotonyl)FQDLGVK_]”, the collision cross section (charge state: 2, modification: Crotonyl) was 452.45 ± 0.83 Å² and the collision cross section (charge state: 3, modification: Crotonyl) was 494.25 ± 1.6 Å².

Work on “VFIGNLNTLVVKK [_VFIGNLNTLVVK(Succinyl)K_]” yielded a collision cross section [13] of 423.07 ± 0.53 Å² and a collision cross section [24] of 489.97 ± 1.6 Å².

With ILDLKTGTVK [_ILDLK(Methyl (K))TGTVK_] the collision cross section [3] was 356.44 ± 1 Å².

“LEEVTGKLQVAR [_LEEVTGK(hydroxyisobutyryl)LQVAR_]” gave a collision cross section [11] of 399.92 ± 0.3 Å².

In the case of “SNEEGSEEKGPEVR [_SNEEGSEEK(Methyl (K))GPEVR_]”, the collision cross section [3] is reported as 394.85 ± 7.3 Å² and the collision cross section [4] is reported as 481.38 ± 2.6 Å².

For LQLEIDQKK [_LQLEIDQK(GlyGly (K))K_], the collision cross section [1] was 376.75 ± 0.46 Å² and the collision cross section [2] was 433 ± 2.7 Å².

AYILNLVK [_AY(Phospho (Y))ILNLVK_] showed a collision cross section [20] of 363.28 ± 0.69 Å².

In the case of “GPPRGGPGGELPR [_GPPR(Citrullination (R))GGPGGELPR_]”, the collision cross section [9] is reported as 368.26 ± 0.27 Å² and the collision cross section [10] is reported as 454.52 ± 3.7 Å².

In the case of ASEALLKQLK [_ASEALLK(Malonyl)QLK_], the collision cross section [14] is reported as 374.73 ± 0.63 Å².

For “GDTGLPGPQGIPGGVGSPGR [_GDTGLPGPQGIPGGVGSP(Hydroxyproline)GR_]”, the collision cross section (charge state: 3, modification: Hydroxyproline) was 499.06 ± 39 Å².

“LDINTNTYTSQDLK [_LDINTNTYTS(HexNAc (ST))QDLK_]” showed a collision cross section [21] of 444.16 ± 0.035 Å².

“VFIGNLNTLVVKKK [_VFIGNLNTLVVK(Acetyl (K))KK_]” gave a collision cross section [26] of 507.56 ± 1 Å².
